Experimental data: paper PMC4266597, “Ultrastable cellulosome-adhesion complex tightens under load” (Nature Communications, 2014)

How the values were obtained:
[1] = target: T1, T129C Xyn-XMod-Doc protein (R. flavefaciens XMod-Doc from the CttA scaffoldin fused to the XynT6 xylanase … (Ruminococcus flavefaciens strain FD1, UniProt A0AEF5 565-803, engineered cysteine (T129C in the xylanase) coupled to a 5 kDa NHS-PEG-Mal linker on the cover glass or cantilever)); test: AFM single-molecule force spectroscopy; as a1, but final Doc:Coh rupture immediately following XMod unfolding (35–40% of traces); Bell-Evans fit; details: both partners purified
T1 construct: X-module and dockerin (XMod-Doc) of the CttA scaffoldin of Ruminococcus flavefaciens strain FD1; The Xyn domain is a marker (fingerprint) and immobilisation domain and is written as a carrier under tags; Addgene 60865 holds the plasmid; also called XynT6-XDoc T129C; Xylanase-Xmodule-Dockerin; source: E. coli BL21, purified (Ni-NTA); not shown: XynT6 xylanase from Geobacillus stearothermophilus …
T1 sequence: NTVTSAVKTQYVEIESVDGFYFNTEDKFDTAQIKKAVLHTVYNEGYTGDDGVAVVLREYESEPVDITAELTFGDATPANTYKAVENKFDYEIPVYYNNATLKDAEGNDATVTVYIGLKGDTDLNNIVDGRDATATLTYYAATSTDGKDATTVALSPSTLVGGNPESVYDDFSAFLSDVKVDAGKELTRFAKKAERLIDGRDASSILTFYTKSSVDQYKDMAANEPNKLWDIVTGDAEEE

[2] = target: T1, T129C Xyn-XMod-Doc protein (R. …); test: AFM single-molecule force spectroscopy; both partners covalently immobilised through PEG linkers; configuration I: Coh-CBM on the cantilever, Xyn-XMod-Doc on the cover glass (configuration II the reverse); Ca-TBS (25 mM TRIS, 72 mM NaCl, 1 mM CaCl2, pH 7.2); pulling speeds 0.2 to 6.4 um/s; final complex rupture with intact XMod; Bell-Evans fit; details: both partners purified

B1: Coh-CBM C2A, C63S fusion protein (R. flavefaciens CohE from ScaE fused to cellulose-binding module 3a (CBM3a) from C. thermocellum), with ybbR tag (domain or fragment, Ruminococcus flavefaciens strain FD1)
chain: ALTDRGMTYDLDPKDGSSAATKPVLEVTKKVFDTAADAAGQTVTVEFKVSGAEGKYATTGYHIYWDERLEVVATKTGAYAKKGAALEDSSLAKAENNGNGVFVASGADDDFGADGVMWTVELKVPADAKAGDVYPIDVAYQWDPSKGDLFTDNKDSAQGKLMQAYFFTQGIKSSSNPSTDEYLVKANATYADGYIAIKAGEP
modifications: ybbR tag covalently linked to Coenzyme A on PEG by Sfp phosphopantetheinyl transferase
notes: cohesin CohE of the ScaE scaffoldin of Ruminococcus flavefaciens strain FD1; The CBM is a marker (fingerprint) and immobilisation domain and is written as a carrier under tags; C2A reverts the earlier A2C in the CBM; also called CohE-CBM C2A C63S; Coh-CBM-ybbR; source: E. coli BL21(DE3) RIPL, purified (Ni-NTA); not shown: CBM3a from C. thermocellum with C2A and C63S, C-terminal, kept
koff of the rupture following XMod unfolding [1]: 0.00047 s⁻¹
rupture force following XMod unfolding [1]: ~300 pN
koff [2]: 7.3e-07 s⁻¹
